Experimental data as given in paper doi:10.1101/2024.02.27.582255 (bioRxiv, 2024).
Ends that are not written are not given here. * marks the point of attachment. For = O=C*

Molecular target: the molecule itself
Assay: ThT fluorescence + TEM

For-MEFVAKLFKFFKDLLGKFLGNN [formylated wild-type phenol soluble modulin α3 (f-WT PSMα3)]
binding result: binds

MEFVAKLFKFFKDLLGKFLGNN [deformylated wild-type phenol soluble modulin α3 (df-WT PSMα3)]
binding result: binds
